Data reported in patent publication US20100172896A1, “HMGB1 PROTEIN INHIBITORS AND/OR ANTAGONISTS FOR THE TREATMENT OF VASCULAR DISEASES” (BIO3 RESEARCH SRL, priority 2001, published 2010).

What was measured:
Assay type in all cases: cell-based
[1] = system: RSMC; experiment: Chemotaxis assay, modified Boyden chambers, RSMC
Method: Chemotaxis assays were performed using well-known protocols (Degryse et al., 1999, Blood, 94: 649-662).
Modified Boyden chambers were used with filters having 0.5 Am pore size (Corning, Acton, Mass.) and. treated with collagen I (100 Ug/ml in 0.5 M acetic acid) e fibronectin (10 IIg/ml) (Roche). RSMC cells (kind gift of Dr. Marco Bertulli, Bayer Research Laboratories, Milan) were cultured in DMEM serum-free and a sample of 20.000-40.000 cells was added to the upper well of Boyden. chamber. The molecules to be tested were diluted in the same serum-free medium and added to the lower well.
Different HMGB1 preparations were used: HMGB1 purified from calf thymus (kind gift of J. Bernues, C.S.I.C., Barcelona, Spain), E. coli expressed […], and a lightly modified HMGB1 form (containing EAEAYVEF aminoacids bound to the Nterminus) produced in yeast Pichia pastoris (Mistry et al., 1997, Biotechniques, 22: 718-729).
If necessary, the polyclonal rabbit anti-HMGB1 (Pharmingen B D, Torrey Pines, Calif.), the pertussis toxin (PT) from Bordetella pertussis (kind gift of Dr. M. G. Pizza, I.R.I.S., Siena) or the inhibitors were added in both wells.
Overnight cell migration was allowed at 37 C, then cells remaining on the upper surface of filters were scraped off and filters were fixed in methanol and stained in a solution of 10% crystal violet in 20% methanol. All experiments were performed at least twice in triplicate.
Results, as shown in FIGS. 1-A, 1-B, 1-C, 1-D, are the mean±SD of the number of cells counted in 10 high power fields per filter and expressed as fold over control. To random cell migration (i.e., migration in the absence of chemoattractant) was given the arbitrary value of 100%.
Statistical analysis was performed using Student's t test for pairwise comparisons of treatments, or an ANOVA model for the evaluation of treatments with increasing doses of a reagent.
Knowing that many chemoattractants act via membrane receptors associated to heterotrimeric GTP binding proteins (G proteins), whether G proteins could be implicated in HMGB1 signaling was tested. […] RSMC were pre-treated with PT or with mPT (50 ng/ml) for 6 hours, thus stimulated with HMGB1 (100 ng/ml), Box A or Box B (10 ng/ml) for 30 minutes.
Chemotaxis assays were performed as previously described. The data represent the mean±SD and the value of 100% corresponds to basal migration in the absence of any stimulator.

[2] = system: RSMC; experiment: Immunofluorescence assay of RSMC morphology and actin cytoskeleton organization
Method: Samples of 15.000-20.000 RSMC, 20-40% confluence, 2 were seeded on glass coverslips in 2 cm wells and cultured for 24 hours in DMEM plus 10% FCS, washed with PBS, and cultured for another 24 hours in DMEM without FCS. RSMC were stimulated with HMGB1 100 ng/ml for increasing time intervals, from 5 to 120 minutes at 37 C. After stimulation, RSMC were fixed for 20 minutes at room temperature with a solution of 3% paraformaldehyde, 2% sucrose in PBS, pH 7.5, followed by three washes with PBS-BSA 0.2%. Cells were permeabilized with 20 mM Hepes pH 7.4, 300 mM saccharose, 50 mM NaCl, 3 mM MgCl2, 0.5% (v/v) Triton X-100 for 3 minutes at 4 C, and washed again three times with PBS-BSA 0.2%. Then, RSMC were incubated with PBS-BSA 2% for. 15 minutes at 37 C, with primary antibodies for 30 minutes at 37 C, washed three times with PBS-BSA 0.2%, and further incubated with PBS-BSA 2% for 15 minutes. At the end, cells were stained with secondary antibodies and/or phalloidin conjugated with rodamin for visualization of filamentous actin; in some cases, DAPI (4′,6-diamidino-2-phenilindolo, Roche) was used to label the nucleus.
After all the subsequent incubation, coverslips were washed three times with PBS-BSA 0.2%, twice with distilled water, mounted with 20% Mowiol in PBS and analysed on a Axiophot microscope (Carl Zeiss).
Fluorescence photographs were taken either on T-Max 400 or EPH P1600X film (Eastman Kodak) using Zeiss 40 and 100 neofluar lenses.
In certain experiments cells were overnight pretreated with antibodies or PT or inhibitors.
Finally, to determine whether the observed effects of HMGB1 on RSMC actually reflect a dynamic transition from resting to motile states, the proportion of cells in each different state was quantified.

[3] = system: phosphorylated ERK1/2; experiment: ERK1/2 phosphorylation and nuclear translocation in RSMC (immunostaining); parameters: inhibition of HMGB1-induced ERK phosphorylation and nuclear translocation: dose or concentration left out as unconfirmed
Method: Afterwards, whether the HMGB1-induced signaling involves the MAP kinase pathway, was investigated; in fact, it is known that these proteins are activated by RAGE, and they have a direct role in the regulation of the intracellular motility machinery. RSMC were pretreated with PD98059 ([…]) for one hour or were not pre-treated, stimulated for 30 minutes with HMGB1 from calf thymus (100 ng/ml) and stained with specific antibodies against phosphorylated ERK1/2 (New England Biolabs, Beverly, Mass.) and DAPI. A separate sample of cells was stained with TRITC-phalloidin to visualize the reorganization of cytoskeleton. […] Moreover, PD98059, the selective inhibitor of MEK, the upstream regulator of ERK, inhibits HMGB1-induced ERK phosphorylation and. nuclear translocation, as well as RSMC migration and cytoskeleton reorganization.

[4] = system: Mouse embryonic fibroblasts; experiment: Chemotaxis assay on fibroblasts, modified Boyden chambers
Method: Chemotaxis assays were performed using well-know protocols (Degryse et al., 1999, Blood, 94:64. 9-662). Modified Boyden chambers were used with filters having 0.5 ym pore size (Corning, Acton, Mass.) and treated with collagen I (100 pg/ml in 0.5 M acetic acid) and fibronectin (10 IIg/ml) (Roche). Mouse embryonic fibroblasts were cultured following well-known protocols (Calogero et al., 1999, Nat. Genet., 22: 276280) and after 24 hours of serum starvation, a sample of 20.000-40.000 cells was added to the upper well of Boyden. chamber. E. Coli expressed recombinant-HMGB1 was diluted in the same serum-free medium and added to the lower well. Anti-RAGE antibodies (1000 ng/ml) (kind gift of Dr. A. M. Schimdt, Columbia University, NY) were added in both wells.
Overnight cell migration. was allowed at 37 C, then cells remaining on the upper surface of filters were scraped off and filters were fixed in methanol and stained in a solution of 10% crystal violet in 20% methanol. All experiments were performed at least twice in triplicate.
Results, as shown in FIG. 10 are the mean W SD of the number of cells counted in 10 high power fields per filter and expressed as fold over untreated control. To random cell migration (i.e. migration in absence of chemoattractant) was given the arbitrary value of 100%.
Statistical analysis was performed using an ANOVA model for the evaluation of treatments with increasing doses of a reagent. […] Anti RAGE antibodies (1000 ng/ml) totally block the migratory response (right side of the graphic of FIG. 10) showing that this is specifically due to HMGB1.

[5] = HMGB1 100 ng/ml, one hour after stimulation

Question: What does the source list for `COc1cccc(-c2cc(=O)c3ccccc3o2)c1N` [PD98059, reference compound]?
Answer: inhibition of HMGB1-induced RSMC migration ([1]; inhibitor in both wells or pre-treatment, HMGB1 as chemoattractant): inhibits; inhibition of HMGB1-induced cytoskeletal reorganization and morphological change of RSMC ([2]; cells pretreated with antibodies, PT or inhibitors): inhibits; inhibition of HMGB1-induced ERK phosphorylation and nuclear translocation ([3]; pretreated with PD98059 for one hour): inhibits

B1: HMGB1 from calf thymus: HMGB1 purified from calf thymus (protein, UniProt P10103 2-215, looked up)
High mobility group protein B1: GKGDPKKPRGKMSSYAFFVQTCREEHKKKHPDASVNFSEFSKKCSERWKTMSAKEKGKFEDMAKADKARYEREMKTYIPPKGETKKKFKDPNAPKRPPSAFFLFCSEYRPKIKGEHPGLSIGDVAKKLGEMWNNTAADDKQPYEKKAAKLKEKYEKDIAAYRAKGKPDAAKKGVVKAEKSKKKKEEEEDEEDEEDEEEEEDEEDEEEEEDDDDE
Question: How did the “maximal migratory response of RSMC” value ([1]; at 100 ng/ml, random cell migration = 100%) turn out when B1 was run?
Answer: 2.5 fold

Question: And the “lowest dose stimulating migration of RSMC” value ([1]; concentration-dependent, overnight migration)?
Answer: 0.1 ng/mL

B2: E. Coli expressed recombinant-HMGB1: full-length HMGB1 expressed in E. Coli transformed with pT7-7-rHMGlcm plasmid (protein, UniProt P09429 1-215, looked up)
chain: MGKGDPKKPRGKMSSYAFFVQTCREEHKKKHPDASVNFSEFSKKCSERWKTMSAKEKGKFEDMAKADKARYEREMKTYIPPKGETKKKFKDPNAPKRPPSAFFLFCSEYRPKIKGEHPGLSIGDVAKKLGEMWNNTAADDKQPYEKKAAKLKEKYEKDIAAYRAKGKPDAAKKGVVKAEKSKKKKEEEEDEEDEEDEEEEEDEEDEDEEEDDDDE
modifications: full-length expressed in E. coli
notes: full-length HMGB1 expressed in E. Coli transformed with pT7-7-rHMGlcm plasmid
Question: Which results are given for B2?
Answer: dose giving maximal migratory response of fibroblasts [4]: 100 ng/mL; migratory response of fibroblasts at higher doses ([4]; 1000 ng/ml): lower than the control; lowest dose stimulating fibroblasts migration ([4]; concentration-dependent): 0.1 ng/mL

B3: HMGB1: HMGB1 protein, 25-kD, 215 amino acids, two HMG boxes and acidic COOH terminus; preparation not specified at the place (protein, UniProt P09429 1-215, looked up)
High mobility group protein B1: B2 chain
Question: B3 was tested. Which “chemotactic effect on RSMC (in words)” value ([1]; overnight migration, serum-free medium) did it give?
Answer: comparable in amplitude to the effects of the well characterised attractants fMLP and bFGF

Question: What about the “proportion of cells in state 2” value ([2]; HMGB1 100 ng/ml, after 15-30 minutes) of the same molecule?
Answer: 80%

Question: And the “proportion of cells in state 1” value [2, 5]?
Answer: 60%

Question: And the “proportion of cells in state 2” value [2, 5]?
Answer: 40%

Question: And the “change of RSMC morphology and cytoskeleton organization” value ([2]; HMGB1 100 ng/ml, within 15-30 minutes)?
Answer: complete change of morphology and cytoskeleton organization

Question: What about the “proportion of cells in state 2” value ([2]; HMGB1 100 ng/ml, within 5 minutes after stimulation) of the same molecule?
Answer: 60%

Question: And the “activation and nuclear translocation of ERK1/2 in RSMC” value ([3]; HMGB1 from calf thymus 100 ng/ml, within 30 minutes)?
Answer: induces the activation of ERK1/2 proteins
